± gives the standard deviation of the averaged measurements.
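Note: PSI is a weighted mean of sequencing reads over stability bins, variants kept only with over 10 reads, mCherry proximal and sfGFP distal, peptide attached via GGGS linker.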

The test system of the data set is Saccharomyces cerevisiae. In words: protein stability index of tFT-peptide fusion (C-terminal peptide) (PSI (0-1 scale)); higher = more stable (slower turnover). As to conditions: genetic background: wild type; temperature: 30 C. The method, then:
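Multiplexed protein stability (MPS) profiling in S. cerevisiae. Random 12-aa peptides (tFT-X12 library) are fused to the C-terminus of a sfGFP-mCherry tandem fluorescent timer, after mCherry and a GGGS linker. Cells are FACS-sorted into 8 mCherry/sfGFP bins and deep-sequenced. The protein stability index (PSI) is the read-weighted bin average, scaled from 0 (unstable) to 1 (stable). Only peptides with >10 reads are reported; cells were grown at 30 °C in SC-His with glucose.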
Take GRPKGGGIGEAG: the protein stability index stood at 0.6928 ± 0.00079.

For the sequence GRPKNSYNQNSG, the protein stability index amounted to 0.747 ± 0.013.

GRPLRAPPPPSP registered a protein stability index of 0.65 ± 0.043. Under GRPYEHVVDPWR stands 0.733 ± 0.029; under GRRFCYQASAGQ, 0.642 ± 0.0093.

GRRGCSGGLKGL came in with a protein stability index of 0.675 ± 0.039.

Consider GRRGGGTGAPSR, for which the protein stability index stood at 0.65 ± 0.05. As to GRRVVRGWLVRR, the protein stability index amounted to 0.683 ± 0.095. GRRWGGERVREG displayed a protein stability index of 0.66 ± 0.015. Consider GRRWPVPGGVSA, for which the protein stability index worked out at 0.693 ± 0.09.

With GRSPMGDGGFFS, the protein stability index turned out to be 0.7284 ± 0.0034. GRTKFIPTPSTY had a protein stability index of 0.712 ± 0.023.

GRVQARGRPGLD: the protein stability index came out at 0.632 ± 0.045. In the case of GRWGRGGASVVT, the protein stability index was determined as 0.649 ± 0.029. GSACSLCGLYFN had a protein stability index of 0.709 ± 0.073. In the case of GSCVVRKFGKRS, the protein stability index was 0.681 ± 0.016. The result for GSDDLVSVSSAE reads 0.708 ± 0.028; that for GSDEVGTGWGRL, 0.669 ± 0.13. As for GSFFFFLAPSYF, the protein stability index was determined as 0.636 ± 0.014. GSGAQVERCRWE returned a protein stability index of 0.719 ± 0.02. Turning to GSGGLRVVCLLM, the protein stability index stood at 0.653 ± 0.027. As for GSGRNMHLRGSL, the protein stability index worked out at 0.65 ± 0.019.

Regarding GSGTGRWPGYGS, the protein stability index came to 0.718 ± 0.088. GSILPSGFLSFA gave a protein stability index of 0.7472 ± 0.003.

With GSLGTTTILRKT, the protein stability index amounted to 0.67 ± 0.064. Sequence GSLLSEERGRYW displayed a protein stability index of 0.75 ± 0.026. Sequence GSNKWATANKYG showed a protein stability index of 0.6561 ± 0.0033. Take GSPLASSPSVID: the protein stability index stood at 0.704 ± 0.041. Under GSPPSPPLPPPP stands 0.674 ± 0.023.

Regarding GSPTSAPLSPPP, the protein stability index was determined as 0.686 ± 0.0038. The sequence GSQSPKEEYHES returned a protein stability index of 0.632 ± 0.045. GSRAECWEVGGV registered a protein stability index of 0.6742 ± 0.004. The result for GSRPVSAGCAYS reads 0.655 ± 0.038; that for GSSGGVWPDLNY, 0.701 ± 0.012. Sequence GSSGQPDSPPIS registered a protein stability index of 0.684 ± 0.015.

GSSLRRLPASCD: the protein stability index worked out at 0.676 ± 0.066. Under GSSQGCLICSIA stands 0.649 ± 0.049. Sequence GSTNNHEVTENI showed a protein stability index of 0.688 ± 0.013. GSTRHFMSEKRE gave a protein stability index of 0.743 ± 0.079. In turn, GSTSSSFPVSIR came in with a protein stability index of 0.727 ± 0.045. GSVGFPDRLLCL came in with a protein stability index of 0.73 ± 0.033. Regarding GSVLPPPAPPPL, the protein stability index was found to be 0.674 ± 0.021. The sequence GSVSWVLMWSWG had a protein stability index of 0.623 ± 0.059. For GSWAVQEHMLLE, the protein stability index amounted to 0.728 ± 0.065.

GSWGEGGVAVGG: the protein stability index stood at 0.653 ± 0.032. For the sequence GSWRVLVLLGEL, the protein stability index stood at 0.636 ± 0.029. GTCGDRGRGGER yielded a protein stability index of 0.559 ± 0.023. As to GTDRRGRDAPHS, the protein stability index is 0.586 ± 0.031. Sequence GTEYDENSGTNE returned a protein stability index of 0.642 ± 0.011.

GTGDGRHRCRWN: the protein stability index was found to be 0.6655 ± 0.006. GTGGRMIRWGLG showed a protein stability index of 0.667 ± 0.061. Sequence GTGQSRAEGARP displayed a protein stability index of 0.672 ± 0.015. As for GTLPLGVRGGLK, the protein stability index was 0.657 ± 0.081. The result for GTQTITAQRAAA reads 0.643 ± 0.015. The result for GTRGGGGWSCES reads 0.701 ± 0.06; that for GTRRIDSKDICP, 0.742 ± 0.04; that for GTRVGRARGGRK, 0.835 ± 0.047.

GTSDPRGSGPAG displayed a protein stability index of 0.715 ± 0.015. GTVGTGFGGGVE displayed a protein stability index of 0.677 ± 0.12. Turning to GTVTVLVGVHWE, the protein stability index amounted to 0.539 ± 0.008. For the sequence GTWEGDTSACAR, the protein stability index is 0.636 ± 0.047. GVAEGRKVGAST came in with a protein stability index of 0.654 ± 0.036. Turning to GVAKRGREGCWS, the protein stability index worked out at 0.569 ± 0.065. GVAVVSGREGRG: the protein stability index was determined as 0.7809 ± 0.0063.

The values above are taken from the supplement of paper PMC10724198.
